Experimental data from PMC10850148.

T1: OY-M SAP05 (residues 33-135)
T1 chain: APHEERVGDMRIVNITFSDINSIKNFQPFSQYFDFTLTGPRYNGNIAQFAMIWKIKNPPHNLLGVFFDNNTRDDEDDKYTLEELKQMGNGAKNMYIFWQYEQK


Assays:
[1] = target: MqGATA triple mutant (Y-R, M-K, N-R) (Macrosteles quadrilineatus); assay: ITC
[2] = target: AtGATA18 ZnF domain (Arabidopsis thaliana) (UniProt Q8LC79); assay: ITC
[3] = target: AtSPL5 ZnF domain (residues 60-124) (Arabidopsis thaliana) (UniProt Q9S758); assay: ITC
[4] = target: AtGATA18 ZnF domain (UniProt Q8LC79); assay: ITC
[5] = target: AtGATA18 ZnF domain (Arabidopsis thaliana) (UniProt Q8LC79); assay: ITC; MicroCal PEAQ-ITC, 16 °C, 20 mM Tris-HCl pH 7.5, 150 mM NaCl; 660-700 μM protein injected into 40-50 μM protein in the cell; SAP05 titrated to the transcription factor; one-site model
[6] = target: AtSPL5 ZnF domain (residues 60-124) (Arabidopsis thaliana) (UniProt Q9S758); assay: as above
[7] = target: AtSPL5 ZnF domain (residues 60-124) (UniProt Q9S758); assay: ITC
[8] = target: T1, OY-M SAP05 (residues 33-135); assay: ITC; details: chain shown with the change

Molecule	Kd [4] [nM]	Kd [8] [nM]	other results
OY-M SAP05 (residues 33-135) (domain or fragment)	–	–	Kd [1]: 900 nM; Kd [2]: 140 nM; Kd [3]: 420 nM
binary complex AtRPN10-SAP05 (from UniProt P55034 33-135; P55034 1-193)	–	–	Kd [2]: 100 nM; Kd [3]: 370 nM
OY-M SAP05 (residues 33-135) D106A	4000	–	–
OY-M SAP05 (residues 33-135) D108A	5400	–	–
WBDLa SAP05 double mutant M86I-K70T (natural protein)	–	–	Kd [5]: 2700 nM; Kd [6]: 2600 nM
OY-M SAP05 (residues 33-135) E107A	1300	–	Kd [7]: 6300 nM
OY-M SAP05 (residues 33-135) I84A	> 100000	–	–
OY-M SAP05 E107A (domain or fragment)	–	–	fold decrease of binding affinity against wild-type SAP05 [6]: 15 fold
AtGATA18 ZnF domain, Q8LC79 R182A (protein) GDSLLARRCANCDTTSTPLWRNGPRGPKSLCNACGIAFKKEERRTTAATGNT	–	4400	–
AtGATA18 ZnF domain, Q8LC79 R188A (protein) GDSLLARRCANCDTTSTPLWRNGPRGPKSLCNACGIRFKKEEARTTAATGNT	–	500	–
AtGATA18 ZnF domain, Q8LC79 K185A (protein) GDSLLARRCANCDTTSTPLWRNGPRGPKSLCNACGIRFKAEERRTTAATGNT	–	580	–
AtGATA18 ZnF domain, Q8LC79 I181A (protein) GDSLLARRCANCDTTSTPLWRNGPRGPKSLCNACGARFKKEERRTTAATGNT	–	5000	–
AtSPL5 ZnF domain (residues 60-124), Q9S758 S108A (protein) SRLCQVDRCTVNLTEAKQYYRRHRVCEVHAKASAATVAGVRQRFCQQCARFHELPEFDEAKRSCR	–	1400	–
